Data taken from a protein production outcome set (Wang et al. 2014).

Assay: label from the status in PepcDB records

Sequence | protein production
MANVSMEAKGLLILGFPIAATMIAQTLMSLTDLMLVSRLGEKQVAGVSLGIAVYSFGMLFGLGVITAVTPMIAKAYGRKDFNAVSNYTRQGLWVAALVAMPGVIALILTRSILLFLNVEAETANIASDYCVGALMGLPAFLIYVNLRCFLSAIGRPKTTTWIMFLAVPVNYIIGHVLIFGVMDAEGLGITGAGLASSVTRLAILSTVIATLKYGADFKCFSLFENVMNVKPVVVKKIVLLGLPVGVRILLAEGMLPIIALLISTLGTIDLVAHMVAVRLSGVSAVIALGFSSAASTRVAWQVAANNQNGVRVTGYVASALAFGVSALLAMLLIFFPTELVMLLFDIDDAEVLALTSHLLKVVAAYQILNAIQTAVVGSLLGVSDTKIPTCLVLIGNWLVGLASAYGLVVLFEATVTAVWGGLVLGQVFVVVTCLCRFHMKTKALHE | failed
MLIPSKLHFPRRLHNAILRQRVLDTLENAMHYKLVLFRSPAGYGKTTMAAQWLSDKDATGWYSLDESDNDEYKFAKYFVQTISNATHTELSHSKALTEKRQFASLSSLFSQVFTELISFQDEAYIVLDDYHLITNDTIHLGLKFFLKHLPDNLTLVITSRSQPPLNTANLRVRDLLIEIDNQSLAFDQSETSLFFNQRLNENIDQEAITHVREHVEGWPSALQLIALHSIQNNQSLNNSAQVMAQLNHAHLWDYLAEEVFDHLDQETQQFLMRCAVFDHFNTTLLSKVTQRKDAQLLIENLNRFGLFINTNGEQGDWYKFHNLFAEFLTHQRQNHLAHEEIDLQKYAAEAWLEHDNIYQALRHAKNAKDDILIANILTQHGWHLFNNGELSLLETTISDLRPEVLFTSPRLVIIRAWLAQSQHNYLQVNDLLSEAQREMADRNIVLDRHMQGEIDALRAQVAINKNEPEAALAFAEKALEELETNKYRSRIVATSVIGEYHHVSGNLAQALALMQQTEKMAMTYGIYHQALWAILQQSEILMAQGFMQAAFDLQDNGFKLIEDQDLHQLPLHEFLLRSRAQIYWFWFRFDEAEQCTWKGLDVLSPFDETKHLRGYSMLARLAVARGELDKAERYLDKCQQLLGQSDYHIDWKANASSAQLFYWQAKNNSEAIQYWLAQAERPETRCNHFTQLQWRNIARAQFHLGDIDTAIETLQTSQTIAQQHKLITDINRNAILAAILLYENKQIDEAVEAMHLAIKQSNQTGIIGSFLMAGRNVLKPLGKLQQKGNVTELEKHRIEQLQKALSNNERSRSAHFDETFIEKVLNTPEVPELIRTSPLTHREWQVLGLIYSGFSNEQIAAEFDVAPTTIKTHIRNLYQKLNLPNRKAAIAMADELVGMMK | failed
MTIDDMSLVVGMYGNYEVTKTGNLVGILEVSGINLDLLNETEQQDVFEDYGAFLMSTLGEGVDDTLQFLEPTIPVNMTTYLNGLKRRYLALQKDHPEQQFKIQLIASYLDHFTKVQESKNMTTKQHLLIVKVPIKDKSAESLNLAVAHLDEKIEQVKRDIENALTDFDVTAKILTSQEVQEILKNLINFNGLEHHHHHH | not failed
MSTVETPVYVPRTVVHKFGGTSVADADCYRHVTRLLLAREETVQVTIVSAMKGVTDTLIALAEQAANHSPDWQVLWQQTRTRHCDAAQALLGEHAATLQDWLNTRFNELHEMLVALSVIGMLPSEVLDRLQGLGEVYSAQLLGHYLQSQGEDCVVLDARQVLVVSPGEFGAEVDWATSAQHLAHWRMQHPQRRVVVTGFVASDRTGRAITLGRNGSDYSGAIFAALFEADELHIWTDVDGVMSADPRVVPDAVQLDALSYDEACELAYFGAKVVHPQTMSPVMKRGVPIIIRNTFQPGHPGTRITADSVVSGSVKGLTLSPGLAVLNLEGTGLIGVPGTAERVFAALRNARLSVVMISQGSSEHSICCLVHQTEAERARDALLYAFAHELAIGHVQRVQLTNNISVLAAVGDGMAGHLGVAARLFESLRRAHVNILAIAQGSSERNISVAIDSQQATKALRAAHAAFWLSPQTFSIGVIGPGHVGEALLDQLCAAQQQLLSKANLDLRLRAIVSRRRMLLDERGLGSDWRHAFAAAPEAVDLDAFTAHLQAAHLPHAVIIDCSGSAEVADRYADWLAAGIHVVTPNKQAGSGPLHRYHAIRAAADASGARFRYEATVGAGLPVITTLRDLMDTGDSVTSIEGIFSGTLAWLFNKYDGSVPFSQLIAQARAMGYTEPDPRDDLSGVDVARKLVILARDAGRDISLEDVAVESLVPETLCQLSVADFMERLNEIDATFAERLAAAKQRGCVLRYVAQLSPGHVPSVSLIELPSDHAFVNLRLTDNVVQFTTRRYSENPLIVQGPGAGPEVTAAGVFADLLRVAAGEGARL | failed
MKKTTLFVLGLLFNSFLNAVDGISKTDLSSLNLAEDSAPLNHPNAQKLSLKNAWTRVLSNHEGLHAQEYAIKRASKMKLAAKLSFLPQIDLSAFYVYLSNPIKMDFASQKQPGVQKATNQIHQGIQNIQQNIPSQVLTPQIQAGMQGVMQGFGALSSTLEAPLLFSKQNVVIGALSIIYPLYMGGARFTMVRIADLMQKDANEVYRLKKLSTFQELVSVYYGMVLNAEVAETLEEVEKGHYKHFQNALKMQKVGQIARVETLGAQVAYDKAHIASVKAKDVLEVSQLSFNSILSSKDDLVPSSKLEIRTEKNLPDLSFFVSSTLNSYPVLKTLENQIQISKENTKLQIAKFLPQVSFFGSYIMKQNNSVFEDMIPSWFVGVAGRMPILSPTGRIQKYQASKLAELQVSSEQIQAKKNMELLVNKTYKETLSYLKEYKSLLSSVELAKENLKLQEQAFLQGLSTNAQVIDARNTLSSIVVEQKSVAYKYIVSLANLMALSDHIDLFYEFVY | failed
MGHVSNSPFSVDVLVVGGGPAGSAAAIHAAKAGYSVLLIDAQPFPRDKTCGDGLTPRAVHQLEALGVDVTSRYRSFGLKLHGFGGSVTVPWPESHFGQVSSAMPRMKFDAMLWEMAAQHATTWTATASEVEIDSAIRSVTMSDGRVVKPRSVIVADGVRSTFGKLLGRTWHRGEVYGIAARSYCTTPRSTEPWMHSHLELRDDSTTLPGYGWIFPIGDGTANVGCGALSTDKRPAKINTKKLLRHYASQQTDWEFGTPQRVASALLPMGGAVSTIAGPNWMLIGDAAACVNPLNGEGIDYGLETAALAVAHLDNPLEWPHILRETYGEAFLLARTAARLLTYPQFLPLTGPIALRTPLMASAARLMGNLVTEEDKDIVARAWRAAGWGVTKIRGGSPLWDLEHHHHHH | failed
MSLTTRHTIGARLLLAFAFSTSLLTIVSLVAWGTWSRLDYQVAELLNQSVPKYNTSYVLETRSSEIRRRIQLIVSATSKVTLNQQYQRLQEDFTAIHAALASLPQNEQQAALQQGYTELRQTTQQINDLVSARIDVDRRLALFAEQLDWLHQDIGMELSPMRQELQWQLERGGAAQPQAQVMFQTINLIQTILDGETQAFLFVDELLKAKHLTQVDNGMRVLQYRLDELSRLSQPLFTQPSSIAYQQLLEEWRNVLRLEGDFQQSLRDRVVLTQKLESTSEQLQIQLDQQHTAIADLVANADALFVQVKGQTAQLVQEGNRVLLICFGLSIGLSLLLMYYFVHKRIVGRLHRLSESLDAIIHNDLSHPITVDGKDEIGALSEQLILYGKKVEEMERTNALSLINNTQASLITCDRYGQIESANPSAMATLRLESLAQPLTLWSCFAKHVQPKVGNULLLFDKKGNLIQKGAESLTLSLGNPEKPHYLRLYLRRYSQGLHDKIIVTITDVTDQEHANRLLEQRVKEKTQSLREKNRELQAEVEERQRAEAHLKKTQGELIQAAKMAVVGQTMTSLAHELNQPLSAMSAYLFSARLALEEAPQAQLATSLDHIENLTERMGKIVNSLRHFARKNSSDESLQPVRLNSVVEQALVLVQTKAKRQQIKLINTLPDDLMVMADALSLEQVLINLIVNGCDASTTFAQPWVKLIALGTEQGMQRIAVIDSGQGFEHEVVDKLFTPFTTTKEVGLGLGLSICQSLVEKMQGRIALASNLEKGAMVILELQQDEKYRTAD | failed
SAKTDKLAQFLDSGIYESDEFNWFFLDTVRITNRSYTRFKVSPSAYYSRFFNSKQLNQHSSESNPKKRKRKQKNSSFHLPSVGEQASNLRHQEARLFLSKAHESFLKEIELLSLTKGLSDDNDDDDSSLLNKCCDDEVSFIELGGVWQAPFYEITLSFNLHCDNEGESCNEQRVFQVFNNLVVNEIGEEVEAEFSNRRYIMPRNSCFYMSDLHHIRNLVPEKISHYHIGRRCNSLIDVIYAAKSEEGYNLIVIDPPWENASAHQKSKYPTLPNQYFLSLPIKQLAHAEGALVALWVTNREKLLSFVEKELFPAWGIKYVATMYWLKVKPDGTLICDLDLVHHKPYEYLLLGYHFTELAGSEKRSDFKLLDKNQIIMSIPGDFSRKPPIGDILLKHTPGSQPARCLELFAREMAAGWTSWGNEPLHFQDSRYFLKV | failed
MTTTPTTPATPTTPNAPTPDVTITVIVYNDAERLPRAVASLLRQTHPAIEIIISDDHSTDATPSVARELEASDPRIRYLRLPENSGGCSAPRNRALEIARAPYLMFLDSDDELPENAVALLLAAHREREVDFAMGAVERIRVDTGHRSTWMAHLVDERRTVDGIEAEPGLLFEHLATSKMYTRDFLDRHALRFPEGIHYEDQLFSAQAYCLAKSFTVIPQPVYRWYIAPYVAQDAASISNQRHKLSNVSDRIHVQTLIDDFLAESGHESLRQDKDYKFLKHDFRMYAGDLPYRDEDWLTGFARIVTPYLETLSPGAYALLPRAERVVLQLVRDGRLSEAQLAARGLGHSVAPRETTADDSGCLYWGPRLPSSDWARRELDVTELGLDSRPFPSAQFRHEITSVTPGRGMTVDLTIRTYDPGLRLPVGPQRASVVVAPGRRRLMVPFRLDPVRPGVFEGRVRVDLAAAPLPVQGFDGVRHPLLRLEQQGLANTGVLLAPLTFPTLRATRPGSLRHEVTVEPEGKAAGRLQIRWRPVGVTARVAGPVARKVAGPRVRRAARLVRSALR | failed
ITSFIRNRDKLTQAEYLLRLAGEKASLGGWRIELDPPVITWTSETAVIHGMPPDYSPPDVGTAVQFYAPEFREFIMEVFERCVQQGEPFDVICQLQVPDGRRPWIRAIGEAERDAQGKVIVVQGAFQDIS | failed
MAEVTGVRALTGAALDAALEDVARLRIAVFRAWPYLYDGDLDYERDYLQAYRNSDRAIVVGAFDGDRLIGASTGMPLADHADDFAAAFADSGLALDQVFYCAESVLLPDYRGHGVGHRFFDLREGHARALGFAKCAFCGVQRPADHPLKPDSYRPLDAFWRARGYEKLPGAVAHFSWKDLDQENETDKPLQFWIRDL | failed
MSSNVPADMINLRLILVSGKTKEFLFSPNDSASDIAKHVYDNWPMDWEEEQVSSPNILRLIYQGRFLHGNVTLGALKLPFGKTTVMHLVARETLPEPNSQGQRNR | failed
MIPPYREHPLREVLINELHARPSETIEAPVRLSHLAVLTGEITDPSLDHLGLLCARMGETVPAKGATRFNANLGGLGLQFERHTEFCTYTFQRRGRTGDLPFDQPALDMVPPDWLATLPGQVLSAVHLVVEPKDTPEYSIEELSIRHFAGNPVVGSAVGGGAAFAYSDLRLHDDRCLRMLIRDVDLNPRHAGRLVQRLLELNTYRALALLALPMARESSPGLRRIDMVLAHVAARMADPNGVDSDAELLSELSNLTAEVESLAAANSYRIAATRAYHALVQRRLEELREVRLDGVVTFGAFMDRRLTPAMATVDSVSERIESLSERGARVASLLRARVEVDLQAQNKRLLESMNRRARIQLRLQEAVEGLSVVAISYYLVGLVGYMAKGVSGAGVEVKESVVTAIAVPVIVASVWLVLRRAKRAMLNRAD | failed
MRLYKIGLVLLLWVFAVTAQAELRFPALSGRVVDDAQMIEPTISALLTRQLQAHEQATGEQLVVVTLPDLQGASIEEFGYQLGRHWGIGQKDKNNGALLIVARDERKLRIEVGYGLEERLTDAQASVIINQVITPAFKTGQFSKGISDGVSAMLLVLGGTPLDEPTTVYDSGDSSSQDDFVQRHPLLFIFLVLLFILVIMVAQALGLITTTSGRGGGGGGGFGGFGGGSGGGGGFSGGGGSFGGGGSSGGWLEHHHHHH | failed
PRLLCTATKQKNSGQNLEEDMGQSEQKADPPATEKTLLEEKVKLEEQLKETVEKYKRALADTENLRQRSQKLVEEAKLYGIQAFCKDLLEVADVLEKATQCVPKEEIKDDNPHLKNLYEGLVMTEVQIQKVFTKHGLLKLNPVGAKFDPYEHEALFHTPVEGKEPGTVALVSKVGYKLHGRTLRPALVGVVKEA | failed
